Where two headings read alike, the source gives them in different places.
Assays:
Assay type in all cases: binding
[1] = test system: SARS-CoV-2 gRNA and sgRNAs
gRNA of HCoV-OC43 = settings: for target (spectral count) / background (spectral count): type g_36_m, 36 hpi, Probe I; for target (spectral count): HCoV-OC43-infected HCT-8 cells; for background (spectral count): uninfected-probe control
HCoV-OC43 gRNA and sgRNA = settings: for target (unweighted spectral count, OC43 Probe II capture): tested against no-probe control, FDR<10%

B1: HRNPA2B1 (protein, UniProt P22626 1-353, looked up)
Heterogeneous nuclear …: MEKTLETVPLERKKREKEQFRKLFIGGLSFETTEESLRNYYEQWGKLTDCVVMRDPASKRSRGFGFVTFSSMAEVDAAMAARPHSIDGRVVEPKRAVAREESGKPGAHVTVKKLFVGGIKEDTEEHHLRDYFEEYGKIDTIEIITDRQSGKKRGFGFVTFDDHDPVDKIVLQKYHTINGHNAEVRKALSRQEMQEVQSSRSGRGGNFGFGDSRGGGGNFGPGPGSNFRGGSDGYGSGRGFGDGYNGYGGGPGGGNFGGSPGYGGGRGGYGGGGPGYGNQGGGYGGGYDNYGGGNYGSGNYNDFGNYNQQPSNYGPMKSGNFGGSRNMGGPYGGGNYGPGGSGGSGGYGGRSRY
target (unweighted spectral count in RNP capture) ([1]; Probe II capture, […], LC-MS/MS LFQ): 88
background (unweighted spectral count in control) ([1]; no-probe control pull-down, used as background for Probe II): 1

B2: RAVER1 (protein, UniProt Q8IY67 2-606, looked up)
Ribonucleoprotein PTB-binding …: AADVSVTHRPPLSPKSGAEVEAGDAAERRAPEEELPPLDPEEIRKRLEHTERQFRNRRKILIRGLPGDVTNQEVHDLLSDYELKYCFVDKYKGTAFVTLLNGEQAEAAINAFHQSRLRERELSVQLQPTDALLCVANLPPSLTQQQFEELVRPFGSLERCFLVYSERTGQSKGYGFAEYMKKDSAARAKSDLLGKPLGPRTLYVHWTDAGQLTPALLHSRCLCVDRLPPGFNDVDALCRALSAVHSPTFCQLACGQDGQLKGFAVLEYETAEMAEEAQQQADGLSLGGSHLRVSFCAPGPPGRSMLAALIAAQATALNRGKGLLPEPNILQLLNNLGPSASLQLLLNPLLHGSAGGKQGLLGAPPAMPLLNGPALSTALLQLALQTQGQKKPGILGDSPLGALQPGAQPANPLLGELPAGGGLPPELPPRRGKPPPLLPSVLGPAGGDREALGLGPPAAQLTPPPAPVGLRGSGLRGPLSHFYSGSPTSYFTSGLQAGLKQSHLSKAIGSSPLGSGEGLLGLSPGPNGHSHLLKVRAGGGDMQGWEAPAPQRPLTRPALPSVSRPHWAARNAALPTCCPRPSPAQKAAMWASTPRASAATTRTPT
target (spectral count, OC43 Probe I RNP capture) (gRNA of HCoV-OC43; type n_48_v: 48 hours post-infection, infected cells, OC43 Probe I, unweighted spectral count): 5
background (spectral count, no-probe control) (gRNA of HCoV-OC43; type n_48_v: 48 hours post-infection, no-probe control on infected cells): 1
target (unweighted spectral count, OC43 Probe II) (HCoV-OC43 gRNA and sgRNA; type n_48_v, 48 hpi, OC43 Probe II capture on infected cells): 5
background (unweighted spectral count, no-probe control) (HCoV-OC43 gRNA and sgRNA; type n_48_v, 48 hpi, no-probe control on infected cells): 1

B3: PDIA6: host protein, UniProt Q15084 (protein, UniProt Q15084 20-440, looked up)
Protein disulfide-isomerase A6: LYSSSDDVIELTPSNFNREVIQSDSLWLVEFYAPWCGHCQRLTPEWKKAATALKDVVKVGAVDADKHHSLGGQYGVQGFPTIKIFGSNKNRPEDYQGGRTGEAIVDAALSALRQLVKDRLGGRSGGYSSGKQGRSDSSSKKDVIELTDDSFDKNVLDSEDVWMVEFYAPWCGHCKNLEPEWAAAASEVKEQTKGKVKLAAVDATVNQVLASRYGIRGFPTIKIFQKGESPVDYDGGRTRSDIVSRALDLFSDNAPPPELLEIINEDIAKRTCEEHQLCVVAVLPHILDTGAAGRNSYLEVLLKLADKYKKKMWGWLWTEAGAQSELETALGIGGFGYPAMAAINARKMKFALLKGSFSEQGINEFLRELSFGRGSTAPVGGGAFPTIVEREPWDGRDGELPVEDDIDLSDVELDDLGKDEL
target (spectral count) (gRNA of HCoV-OC43): 12
background (spectral count) (gRNA of HCoV-OC43): 1
target (unweighted spectral count, OC43 Probe II capture) (HCoV-OC43 gRNA and sgRNA; 24 hpi, type n_24_v): 4
target (unweighted spectral count, OC43 Probe II capture) (HCoV-OC43 gRNA and sgRNA; 36 hpi, type n_36_v): 7
target (spectral count) (HCoV-OC43 gRNA and sgRNA; type s_36_m, HCoV-OC43-infected HCT-8 cells, 36 hpi, Probe II): 7
background (spectral count) (HCoV-OC43 gRNA and sgRNA; type s_36_m, uninfected-probe control, 36 hpi, Probe II): 1

B4: LUC7L2: host protein, UniProt Q9Y383 (protein, UniProt Q9Y383 1-392, looked up)
Putative RNA-binding protein …: MSAQAQMRAMLDQLMGTSRDGDTTRQRIKFSDDRVCKSHLLNCCPHDVLSGTRMDLGECLKVHDLALRADYEIASKEQDFFFELDAMDHLQSFIADCDRRTEVAKKRLAETQEEISAEVAAKAERVHELNEEIGKLLAKVEQLGAEGNVEESQKVMDEVEKARAKKREAEEVYRNSMPASSFQQQKLRVCEVCSAYLGLHDNDRRLADHFGGKLHLGFIEIREKLEELKRVVAEKQEKRNQERLKRREEREREEREKLRRSRSHSKNPKRSRSREHRRHRSRSMSRERKRRTRSKSREKRHRHRSRSSSRSRSRSHQRSRHSSRDRSRERSKRRSSKERFRDQDLASCDRDRSSRDRSPRDRDRKDKKRSYESANGRSEDRRSSEEREAGEI
target (spectral count) (gRNA of HCoV-OC43): 9
background (spectral count) (gRNA of HCoV-OC43): 1
target (unweighted spectral count, OC43 Probe II capture) (HCoV-OC43 gRNA and sgRNA; 24 hpi, type n_24_v): 4
